Data on two molecules can be found in patent publication JP2001333780A (dated 2001).

The test deals with T1, 上皮細胞増殖因子レセプター(EGFR) (UniProt P00533 25-1210, limits assumed).
T1 construct: whole, on cells; The antigen is formalin-fixed A431 cells; also called EGF レセプター; EGFレセプター
Kind of test: competition ELISA with HRP-labelled B4G7 on formalin-fixed A431 cells. Background: ELISA stands for enzyme-linked immunosorbent assay.

B1: 一本鎖scBH抗体 (scFv)
chain: QVQLQQSGAELVRPGASVKLSCTASGFNIKDTLMHWVKQRPEQGLEWIGWIDPEDGNTKYVRKFQGKATITADTSSNTAYLQVSSLTSEDTAIYYCVRGGSYGNWAYWGQGTTVTVSSDIELTQSPASLSASVGETVTITCRTSENIYSYFAWYQQKQGKSPHLLVYNAKTLAEGVPSRFSGSGSGTQFSLKINSLQPEDFGIYFCQHHYGSLHTFGGGTKLEIK
For the molecule B1, the “抗体一価あたりの結合力 (relative to B4G7抗体)” value was ~0.33 fold of B4G7 antibody, per antibody valence.

B2: CaC 型 ヒト型一本鎖抗体 (scFv)
scFv: MGHHHHHHQVQLVQSGAEVKKPGASVKVSCKASGFNIKDTLMHWVRQAPGQGLEWMGWIDPEDGNTKYVRKFQGRVTMTRDTSTSTVYMELSSLRSEDTAVYYCARGGSYGNWAYWGQGTTVTVSSGGGGSGGGGSGGGGSDIQMTQSPSSLSASVGDRVTITCRTSENIYSYFAWYQQKSGKAPKLLIYNAKTLAEGVPSRFSGSGSGTEFTLTISSLQPEDFATYFCQHHYGSLHTFGGGTTVDIKHHHHHHGGGS
notes: Humanised scFv with VH of Ca type and VL of C type
Regarding B2, the binding result is given as “binds”.
